Laboratory results: US20260022175A1 (Chugai, published 2026)
Numbering of substitutions follows the chain as printed.

T1: human FcγRIIa H extracellular domain (human, UniProt P12318 34-217)
T1 construct: extracellular domain; also called hFcγR IIa H
T1 sequence (looked up): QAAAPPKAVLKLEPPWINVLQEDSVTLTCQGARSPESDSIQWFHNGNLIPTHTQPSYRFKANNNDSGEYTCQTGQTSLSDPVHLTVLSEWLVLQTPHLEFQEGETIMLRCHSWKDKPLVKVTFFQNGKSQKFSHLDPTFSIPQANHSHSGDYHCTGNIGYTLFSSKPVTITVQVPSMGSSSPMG

T2: human FcγRIIa R extracellular domain (human, UniProt P12318 34-217)
T2 construct: extracellular domain; also called hFcγR IIa R
T2 sequence (looked up): T1 sequence (looked up) with H134R

T3: hFcγRIIaH on hFcγRIIaH-expressing Jurkat cells (human, UniProt P12318 34-317)
T3 sequence (looked up): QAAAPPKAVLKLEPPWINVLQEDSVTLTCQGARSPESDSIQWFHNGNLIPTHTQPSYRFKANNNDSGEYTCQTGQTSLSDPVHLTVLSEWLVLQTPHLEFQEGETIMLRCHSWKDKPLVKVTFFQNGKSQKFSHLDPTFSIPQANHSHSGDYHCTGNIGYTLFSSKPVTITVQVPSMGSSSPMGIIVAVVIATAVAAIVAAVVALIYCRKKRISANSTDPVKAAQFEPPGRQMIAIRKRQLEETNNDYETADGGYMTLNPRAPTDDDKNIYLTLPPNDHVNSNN

T4: human FcγRIIb extracellular domain (human, UniProt P31994 43-217)
T4 construct: extracellular domain; also called hFcγR IIb
T4 sequence (looked up): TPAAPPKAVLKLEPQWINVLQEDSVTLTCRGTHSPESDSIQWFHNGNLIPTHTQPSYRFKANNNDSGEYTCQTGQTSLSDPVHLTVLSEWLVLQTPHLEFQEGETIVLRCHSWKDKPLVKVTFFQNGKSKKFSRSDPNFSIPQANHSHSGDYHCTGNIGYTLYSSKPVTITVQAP

B1: H240-Kn496/L73-k0//H240-Hl516/L73-k0 (antibody, human IgG1, kappa)
heavy 1: QDQLVQSGAEVKKPGASVKVSCKASGFNIKDTYIQWVRQAPGQGLEWMGRIDPLRKQTKYREKFEGRVTITADTSTNTAYMELSSLRSEDTAVYYCVRSGREFDYWGQGTLVTVSSASTKGPSVFPLAPSSKSTSGGTAALGCLVKDYFPEPVTVSWNSGALTSGVHTFPAVLQSSGLYSLSSVVTVPSSSLGTQTYICNVNHKPSNTKVDKKVEPKSCDKTHTCPPCPAPEFQWGPMVFLFPPKPKDVLMISRTPEVTCVVVDVSDEEPEVKFNWYVDGVEVHNAKTKPREEQYNATYRVVSVLPVLHQDWLNGKEYKCKVSNKALPAPIEKTISKAKGQPREPQVCTLPPSRDELTKNQVSLWCLVKGFYPSDIAVEWESNGQPENNYKTTPPVLDSDGSFFLYSKLTVDKSRWQQGNVFSCSVMHEALHNHYTQKSLSLSP
heavy 2: QDQLVQSGAEVKKPGASVKVSCKASGFNIKDTYIQWVRQAPGQGLEWMGRIDPLRKQTKYREKFEGRVTITADTSTNTAYMELSSLRSEDTAVYYCVRSGREFDYWGQGTLVTVSSASTKGPSVFPLAPSSKSTSGGTAALGCLVKDYFPEPVTVSWNSGALTSGVHTFPAVLQSSGLYSLSSVVTVPSSSLGTQTYICNVNHKPSNTKVDKKVEPKSCDKTHTCPPCPAPELLGGPSVFLFPPKPKDVLMISRTPEVTCVVVDVSHEEPEVKFNWYVDGVEVHNAKTKPREEQYNATYRVVSVLPVLHQDWLNGKEYKCKVSNDALPAPIEETISKAKGQPREPQVYTLPPSRCELTKNQVSLSCAVKGFYPSDIAVEWESNGQPENNYKTTPPVLDSDGSFFLVSKLTVDKSRWQQGNVFSCSVMHEALHNHYTQKSLSLSP
light: DIQMTQSPSSLSASVGDRVTITCRASQDIHKYIAWYQQKPGQAPRLLIQYTSTLQPGVPSRFSGSGSGTDYTFTISSLQPEDIATYYCLQYEQLRTFGGGTKVEIKRTVAAPSVFIFPPSDEQLKSGTASVVCLLNNFYPREAKVQWKVDNALQSGNSQESVTEQDSKDSTYSLSSTLTLSKADYEKHKVYACEVTHQGLSSPVTKSFNRGEC
notes: also called EGL-ART11; ART11
B2: H240-Kn494/L73-k0//H240-Hl514/L73-k0 (antibody, human IgG1, kappa)
heavy 1: B1 heavy 1 with I331E
heavy 2: B1 heavy 2 with I331E
light: B1 light
notes: also called EGL-ART10; ART10

What was measured:
[1] = biological target: T5, human FcγRIIIa F extracellular domain (human, UniProt P08637 17-208); assay: SPR Biacore 8K+; KD for FcγRIIb divided by KD for this FcγR;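 also: antibodies captured on an anti-human Fab kappa SA chip with soluble human FcγR ectodomains flowed over, FcγRIIb KD from steady-state fit, other FcγR KD from Langmuir model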
T5 construct: extracellular domain; also called hFcγR IIIa F
Method: (§1) The interaction between the produced antibodies and human FcγRs was analyzed using Biacore 8K+ by the method below. For the running buffer, 50 mM Na-Phosphate, 150 mM NaCl, and 0.05% Tween20 (pH 7.4) was used, and measurement was performed at 25° C. The sensor chip used was a Series S SA chip (GE Healthcare) onto which CaptureSelect Human Fab-kappa Kinetics Biotin Conjugate (Thermo Fisher Scientific) was immobilized. An antibody of interest was captured onto this chip, and each FcγR diluted with the running buffer was allowed to interact with it. The chip was regenerated using 10 mM Glycine-HCl (pH 1.5), and repeatedly used to capture antibodies and perform measurement. The dissociation constants KD (mol/L) of each antibody for FcγRs were calculated using Biacore Insight Evaluation Software, with a steady state affinity model for the dissociation constant for FcγRIIb and a 1:1 Langmuir binding model for the dissociation constants for the other FcγRs (Table 48).

[2] = biological target: T1, human FcγRIIa H extracellular domain; assay: as above
Method: as §1

[3] = biological target: T6, human FcγRIIIa V extracellular domain (human, UniProt P08637 17-208); assay: as above
T6 construct: extracellular domain; also called hFcγR IIIa V
Method: as §1

[4] = biological target: T2, human FcγRIIa R extracellular domain; assay: as above
Method: as §1

[5] = biological target: T7, human FcγRIa extracellular domain (human, UniProt P12314 16-292); assay: SPR Biacore 8K+, antibody captured, FcγR as analyte, 1:1 Langmuir model;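 also: antibodies captured on a streptavidin chip through a biotinylated anti-human Fab kappa reagent, with FcγR extracellular domains injected in pH 7.4 phosphate buffer at 25 °C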
T7 construct: extracellular domain; also called hFcγR Ia; hFcγRIa

[6] = biological target: T5, human FcγRIIIa F extracellular domain; assay: as above
[7] = biological target: T1, human FcγRIIa H extracellular domain; assay: as above
[8] = biological target: T6, human FcγRIIIa V extracellular domain; assay: as above
[9] = biological target: T2, human FcγRIIa R extracellular domain; assay: as above
[10] = biological target: T3, hFcγRIIaH on hFcγRIIaH-expressing …; assay: cell-based or functional assay
[11] = biological target: T8, human C1q protein (Calbiochem) (human, UniProt P02745 23-245; P02746 28-253; P02747 29-245); assay: ELISA: antibody coated on the plate at the varied concentration, hC1q 3 µg/mL added, detected with HRP-conjugated anti-hC1q antibody, O.D (450-690nm)
T8 construct: bought; also called hC1q
Method: The antigen used was a human C1q protein (hC1q).
First, a 96-well maxisorp plate (Thermo fisher) was coated at 4° C. overnight with 50 μL of solutions containing each antibody prepared at 30, 10, 3, 1, 0.3, 0.1, and 0.03 μg/mL in PBS. Each well of the plate was washed with Wash buffer to remove the antibody not bound to the plate, and then the wells were blocked with 200 μL of Blocking/dilution Buffer at room temperature for 2 hours or longer. After the Blocking/dilution Buffer was removed from each well, hC1q (Calbiochem) prepared such that the final concentration was 3 μg/mL in Blocking/dilution Buffer was added at 50 μL per well. The plate was then allowed to stand at room temperature for 1 hour to allow hC1q to bind to the antibody within each well. After washing with Wash Buffer, 50 μL of an HRP-conjugated anti-hC1q antibody (AbDSerotec) diluted with Blocking/dilution Buffer was added to each well, and the plate was incubated while standing for 1 hour. After washing with Wash Buffer, TMB single solution (Invitrogen) was added. The color development reaction of the solution in each well was stopped by addition of Stop Buffer, and then the developed color was measured by absorbance at 450 nm and 690 nm.

[12] = biological target: T4, human FcγRIIb extracellular domain; assay: SPR Biacore 8K+, antibody captured, FcγR as analyte, steady state affinity model
[13] = biological target: hFcγRIIIaV on hFcγRIIIaV-expressing Jurkat cells (human, UniProt P08637 17-254); assay: cell-based or functional assay
[14] = biological target: T7, human FcγRIa extracellular domain; assay: SPR Biacore 8K+; KD of G1d divided by KD of this antibody;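 also: antibodies captured on an anti-Fab-kappa streptavidin chip, soluble FcγR ectodomains flowed over, KD by steady-state fit for FcγRIIb and Langmuir kinetic model for the other receptors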
[15] = biological target: T5, human FcγRIIIa F extracellular domain; assay: as above
[16] = biological target: T1, human FcγRIIa H extracellular domain; assay: as above
[17] = biological target: T4, human FcγRIIb extracellular domain; assay: as above
[18] = biological target: T6, human FcγRIIIa V extracellular domain; assay: as above
[19] = biological target: T2, human FcγRIIa R extracellular domain; assay: as above

T5 sequence (P08637 17-208): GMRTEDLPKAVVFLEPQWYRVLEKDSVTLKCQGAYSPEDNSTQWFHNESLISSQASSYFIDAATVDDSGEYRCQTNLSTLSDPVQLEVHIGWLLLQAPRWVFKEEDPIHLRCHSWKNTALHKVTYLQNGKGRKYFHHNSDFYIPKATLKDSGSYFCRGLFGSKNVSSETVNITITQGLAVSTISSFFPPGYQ
T6 sequence (P08637 17-208 F176V limits assumed): as the sequence (P08637 17-208) above, with F160V counted along it
T7 sequence (P12314 16-292): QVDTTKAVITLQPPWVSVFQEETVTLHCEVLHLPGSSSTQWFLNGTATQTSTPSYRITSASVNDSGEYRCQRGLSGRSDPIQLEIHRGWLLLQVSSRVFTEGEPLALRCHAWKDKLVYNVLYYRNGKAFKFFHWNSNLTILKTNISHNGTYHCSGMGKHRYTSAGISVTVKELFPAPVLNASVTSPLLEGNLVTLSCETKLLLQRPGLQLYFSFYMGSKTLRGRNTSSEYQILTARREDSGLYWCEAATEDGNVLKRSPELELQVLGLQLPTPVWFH
Chain of hFcγRIIIaV on hFcγRIIIaV-expressing Jurkat cells (P08637 17-254, form in doubt): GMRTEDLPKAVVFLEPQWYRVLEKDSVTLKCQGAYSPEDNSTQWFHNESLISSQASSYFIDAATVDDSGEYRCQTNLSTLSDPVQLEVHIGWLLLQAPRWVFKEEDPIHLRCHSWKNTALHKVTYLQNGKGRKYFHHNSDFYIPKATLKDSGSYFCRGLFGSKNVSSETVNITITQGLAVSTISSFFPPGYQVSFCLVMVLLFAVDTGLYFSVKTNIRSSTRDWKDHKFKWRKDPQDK
T8 sequence (P02745 23-245 limits assumed, chain 1 of 3): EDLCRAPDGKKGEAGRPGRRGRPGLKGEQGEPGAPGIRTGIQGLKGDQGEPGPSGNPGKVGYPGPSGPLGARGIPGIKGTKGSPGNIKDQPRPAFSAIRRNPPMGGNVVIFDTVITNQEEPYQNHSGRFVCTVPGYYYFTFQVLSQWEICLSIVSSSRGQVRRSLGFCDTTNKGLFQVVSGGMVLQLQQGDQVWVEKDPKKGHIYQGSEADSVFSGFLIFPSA
T8 sequence (P02746 28-253 limits assumed, chain 2 of 3): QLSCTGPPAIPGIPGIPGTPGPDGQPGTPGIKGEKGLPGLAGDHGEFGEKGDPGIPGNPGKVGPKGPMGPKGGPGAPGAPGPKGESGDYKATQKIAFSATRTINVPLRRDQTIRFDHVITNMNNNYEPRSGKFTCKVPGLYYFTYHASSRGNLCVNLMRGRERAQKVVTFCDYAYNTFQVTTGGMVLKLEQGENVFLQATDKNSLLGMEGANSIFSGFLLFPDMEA
T8 sequence (P02747 29-245 limits assumed, chain 3 of 3): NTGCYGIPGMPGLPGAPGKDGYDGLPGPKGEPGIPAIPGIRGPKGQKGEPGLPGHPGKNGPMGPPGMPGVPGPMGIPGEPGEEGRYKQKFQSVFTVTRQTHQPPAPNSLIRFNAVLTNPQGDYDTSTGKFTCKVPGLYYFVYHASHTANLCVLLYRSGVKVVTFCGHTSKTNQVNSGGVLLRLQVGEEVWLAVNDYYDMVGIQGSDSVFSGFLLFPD

Row | Binder | A/I ratio (KD for FcγRIIb divided by KD for each FcγR) [1] | A/I ratio (KD for FcγRIIb divided by KD for each FcγR) [2] | A/I ratio (KD for FcγRIIb divided by KD for each FcγR) [3] | A/I ratio (KD for FcγRIIb divided by KD for each FcγR) [4] | Kd [5] | Kd [6] | Kd [7] | Kd [8] | Kd [9] | EC50 value (hFcγRIIaH ADCP Reporter Bioassay, Hepa1-6/hEREG target cells) [10] | binding result [11] | Kd [12] | EC50 value (hFcγRIIIaV ADCC Reporter Bioassay, Hepa1-6/hEREG target cells) [13] | Relative value to KD between G1d and hFcgRs [14] | Relative value to KD between G1d and hFcgRs [15] | Relative value to KD between G1d and hFcgRs [16] | Relative value to KD between G1d and hFcgRs [17] | Relative value to KD between G1d and hFcgRs [18] | Relative value to KD between G1d and hFcgRs [19]
1 | B1 | 694 | 63.3 | 3970 | 11.5 | 0.0381 nM | 21 nM | 231 nM | 3.67 nM | 1270 nM | 0.0367 µg/mL | binds | 14600 nM | 0.000413 µg/mL | 2.4 | 141 | 4.9 | 0.7 | 97.5 | 1.3
2 | B2 | 3160 | 17.3 | 11400 | 6.6 | 0.0267 nM | 2.29 nM | 420 nM | 0.634 nM | 1100 nM | 0.0419 µg/mL | binds | 7250 nM | 0.000107 µg/mL | 3.4 | 1290 | 2.7 | 1.4 | 566 | 1.5
